These results are taken from patent US20220396617A1.

Assay [1] concerns the target human TIGIT (ECD)-his (human) (UniProt Q495A1). Description: SPR (BIAcore 8K), human TIGIT (ECD)-his on CM5 chip, antibody injected. (In general: In SPR one partner is held on a chip, and binding of the other changes the refractive index at the surface.)
Assay [2] deals with TIGIT (ECD)-hFc (human) (UniProt Q495A1). The experiment in a line: FACS blocking assay: antibody preincubated with TIGIT (ECD)-hFc, binding to A549/human PVR cells.
For assay [3] the target is unchanged. Description: FACS blocking assay (protocol of Example 7): serially diluted antibody pre-incubated with TIGIT (ECD)-hFc, then binding of TIGIT (ECD)-hFc to A549/human PVR cells measured; blocked ligand: human PVR [A].
Assay [4] has as its target human TIGIT (ECD)-his (human) (UniProt Q495A1). The experiment in a line: ELISA, coated human TIGIT (ECD)-his (table head says FACS). On the technique in general: An ELISA detects its analyte on a solid surface through an enzyme-linked reagent.
The target in assay [5] is TIGIT (ECD)-hFc (human) (UniProt Q495A1). Description: FACS blocking assay (protocol of Example 7): serially diluted antibody pre-incubated with TIGIT (ECD)-hFc, then binding of TIGIT (ECD)-hFc to A549/human PVR cells measured; blocked ligand: human PVR.
Assay [6] has the same target. The experiment in a line: FACS blocking assay (protocol of Example 7): serially diluted antibody pre-incubated with TIGIT (ECD)-hFc, then binding of TIGIT (ECD)-hFc to A549/human PVR cells measured; blocked ligand: human PVR [B].

pEC50, pKd: −log10 of the molar value.

TIGIT (ECD)-hFc (human), sequence (Q495A1 22-141): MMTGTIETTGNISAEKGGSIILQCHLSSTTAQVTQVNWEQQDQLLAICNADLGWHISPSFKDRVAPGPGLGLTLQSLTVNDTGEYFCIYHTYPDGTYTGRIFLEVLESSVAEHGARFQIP
human TIGIT (ECD)-his (human), sequence (Q495A1 22-141): as above

As for Tiragolumab (antibody), the pKd (usually −log10 of the Kd, conventionally taken in molar units) in assay [1] is 11.83. Moreover, the values for the pEC50 in assay [2] and in assay [4] were 7.38 and 9.80, respectively. Moreover, the IC50 (read off the curve) in assay [3] worked out at 4 µg/mL; in assay [5], 3 µg/mL; in assay [6], 5 µg/mL.
